According to the supplement of paper PMC10567573:

B1: VPS39 (parent)
chain: LRLENNHCHIEESEHVLKKAHKYS

Variants of: B1
Assay: protein stability index of a GFP-peptide fusion (GPS, HEK-293T) (PSI 1-6); higher = more stable
Conditions: c terminus: a fixed tail appended
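Note: lentivirally expressed fusions sorted by FACS into six bins by GFP to DsRed ratio, PSI derived from sequencing read proportions per bin multiplied by bin number.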

Point of comparison: LRLENNHCRIEESEHVLKKAHKYS, protein stability index 2.83. Against it:
- LRLECNHCHIEESEHVLKKAHKYS — lower, 2.22
- LRLEINHCHIEESEHVLKKAHKYS — lower, 2.22
- LRLEYNHCHIEESEHVLKKAHKYS — lower, 2.37
- LRLEMNHCHIEESEHVLKKAHKYS — lower, 2.33
- LRLEENHCHIEESEHVLKKAHKYS — lower, 2.46
- LRLETNHCHIEESEHVLKKAHKYS — lower, 2.48
- LRLEANHCHIEESEHVLKKAHKYS — lower, 2.23
- LRLEKNHCHIEESEHVLKKAHKYS — higher, 3.08
- LRLEHNHCHIEESEHVLKKAHKYS — lower, 1.91
- LRLESNHCHIEESEHVLKKAHKYS — lower, 1.98
- LRLENNHYHIEESEHVLKKAHKYS — lower, 1.86
- LRLENNHMHIEESEHVLKKAHKYS — lower, 2.43
- LRLENNHDHIEESEHVLKKAHKYS — higher, 3.58
- LRLENNHRHIEESEHVLKKAHKYS — higher, 2.95
- LRLENNHEHIEESEHVLKKAHKYS — lower, 2.35
- LRLENNHNHIEESEHVLKKAHKYS — lower, 2.38
- LRLENNHGHIEESEHVLKKAHKYS — lower, 2.27
- LRLENNHPHIEESEHVLKKAHKYS — lower, 2.53
- LRLENNHVHIEESEHVLKKAHKYS — lower, 1.88
- LRLENNHHHIEESEHVLKKAHKYS — higher, 3.03
- LRLENNHCHIEDSEHVLKKAHKYS — higher, 3.1
- LRLENNHCHIETSEHVLKKAHKYS — lower, 2.01
- LRLENNHCHIELSEHVLKKAHKYS — higher, 3.66
- LRLENNHCHIERSEHVLKKAHKYS — lower, 2.14
- LRLENNHCHIEISEHVLKKAHKYS — lower, 1.96
- LRLENNHCHIEGSEHVLKKAHKYS — lower, 2.26
- LRLENNHCHIEASEHVLKKAHKYS — lower, 2.19
- LRLENNHCHIEESEHLLKKAHKYS — lower, 2.47
- LRLENNHCHIEESEHFLKKAHKYS — higher, 3.08
- LRLENNHCHIEESEHKLKKAHKYS — lower, 2.49
- LRLENNHCHIEESEHPLKKAHKYS — higher, 3.07
- LRLENNHCHIEESEHHLKKAHKYS — lower, 2.02
- LRLENNHCHIEESEHMLKKAHKYS — lower, 1.97
- LRLENNHCHIEESEHSLKKAHKYS — lower, 2.65
- LRLENNHCHIEESEHRLKKAHKYS — lower, 2.48
- LRLENNHCHIEESAHVLKKAHKYS — lower, 2.38
- LRLENNHCHIEESIHVLKKAHKYS — lower, 1.88
- LRLENNHCHIEESKHVLKKAHKYS — lower, 2.29
- LRLENNHCHIEESDHVLKKAHKYS — lower, 2.12
- LRLENNHCHIEESCHVLKKAHKYS — lower, 1.37
- LRLENNHCHIEESNHVLKKAHKYS — lower, 2.31
- LRLENNHCHIEESTHVLKKAHKYS — lower, 1.78
- LRLENNHCHIEESHHVLKKAHKYS — lower, 2.33
- LRLENNHCHIEESQHVLKKAHKYS — lower, 2.1
- LRLENNHCHIEESWHVLKKAHKYS — lower, 2.67
- LLLENNHCHIEESEHVLKKAHKYS — lower, 2.54
- LELENNHCHIEESEHVLKKAHKYS — higher, 4.59
- LPLENNHCHIEESEHVLKKAHKYS — higher, 4.55
- LSLENNHCHIEESEHVLKKAHKYS — higher, 3.62
- LALENNHCHIEESEHVLKKAHKYS — higher, 3.68
- LREENNHCHIEESEHVLKKAHKYS — higher, 4.58
- LRIENNHCHIEESEHVLKKAHKYS — lower, 2.62
- LRSENNHCHIEESEHVLKKAHKYS — higher, 3.33
- LRTENNHCHIEESEHVLKKAHKYS — higher, 3.06
- LRRENNHCHIEESEHVLKKAHKYS — higher, 4.51
- LRYENNHCHIEESEHVLKKAHKYS — lower, 2.56
- LRPENNHCHIEESEHVLKKAHKYS — higher, 3.7
- LRFENNHCHIEESEHVLKKAHKYS — lower, 2.09
- LRKENNHCHIEESEHVLKKAHKYS — higher, 4.32
- LRGENNHCHIEESEHVLKKAHKYS — higher, 4.43
- LRLENNHCHIEESEHVKKKAHKYS — lower, 2.27
- LRLENNHCHIEESEHVHKKAHKYS — lower, 1.55
- LRLENNHCHIEESEHVVKKAHKYS — lower, 2.4
- LRLENNHCHIEESEHVFKKAHKYS — lower, 2.79
- LRLENNHCHIEESEHVYKKAHKYS — lower, 2.55
- LRLENNHCHIEESEHVWKKAHKYS — lower, 1.72
- LRLENNHCHIEESEHVMKKAHKYS — lower, 1.56
- HRLENNHCHIEESEHVLKKAHKYS — higher, 4.02
- TRLENNHCHIEESEHVLKKAHKYS — higher, 4.32
- MRLENNHCHIEESEHVLKKAHKYS — higher, 2.99
- RRLENNHCHIEESEHVLKKAHKYS — higher, 3.48
- WRLENNHCHIEESEHVLKKAHKYS — higher, 3.14
- ARLENNHCHIEESEHVLKKAHKYS — higher, 3.91
- GRLENNHCHIEESEHVLKKAHKYS — higher, 4.6
- NRLENNHCHIEESEHVLKKAHKYS — higher, 3.65
- VRLENNHCHIEESEHVLKKAHKYS — lower, 2.29
- DRLENNHCHIEESEHVLKKAHKYS — higher, 4.36
- CRLENNHCHIEESEHVLKKAHKYS — higher, 3.29
- LRLENNHCHIEESEHVLKAAHKYS — lower, 2.3
- LRLENNHCHIEESEHVLKDAHKYS — lower, 2.59
- LRLENNHCHIEESEHVLKQAHKYS — lower, 2.51
- LRLENNHCHIEESEHVLKPAHKYS — lower, 2.41
- LRLENNHCHIEESEHVLKNAHKYS — lower, 2.39
- LRLENNHCHIEESEHVLKSAHKYS — lower, 2.1
- LRLENNHCHIEESEHVLKCAHKYS — lower, 2.24
- LRLENNHCHIEESEHVLKIAHKYS — lower, 2.01
- LRLENNHCHIEESEHVLKRAHKYS — lower, 2.37
- LRLENNHCHIEESEHVLKEAHKYS — lower, 2.45
- LRLENNHCNIEESEHVLKKAHKYS — lower, 2.27
- LRLENNHCSIEESEHVLKKAHKYS — higher, 3.23
- LRLENNHCQIEESEHVLKKAHKYS — lower, 2.57
- LRLENNHCTIEESEHVLKKAHKYS — higher, 3.29
- LRLENNHCDIEESEHVLKKAHKYS — lower, 2.68
